Results as given in patent US20210355204A1.

Legend:
Experiment in all cases: SPR competition: 4 nM TGFβ pre-mixed with TGFβ-RIIb-Fc, injected over immobilised XPA.42.089 (competitor)
[1] = target: TGFβ1 (human) (UniProt P01137)
[2] = target: TGFβ3 (human) (UniProt P10600)
[3] = target: TGFβ2 (human) (UniProt P61812)

“TGFβ-RIIb-Fc recombinant receptor (from UniProt P37173 23-184) (Fc fusion)” showed an average RU of TGFβ binding [1] of -0.316 RU, an average RU of TGFβ binding [2] of -0.378 RU and an average RU of TGFβ binding [3] of 38.2 RU.
